Laboratory results taken from patent US11819556B2, “Stabilized compositions of radionuclides and uses thereof” (RayzeBio, Inc., priority 2021, dated 2023).
Marks after values point to notes of the source that are not given here.

Experiments:
Format in all cases: physicochemical
[1] = EGCg concentration: radio-TLC purity; conditions: 25 μCi/ml, 100 mM sodium ascorbate pH 5.80, 0.05 mg/ml DTPA, saline, 25° C.
Procedure: (§1) The mixture was kept at room temperature (25° C.). At different time points, radioactive components of the formulated dose were measured by radio-TLC as described in the table below: […]

[2] = DTPA concentration optimization: radio-TLC purity; conditions: 20 μCi/ml, 100 mM sodium ascorbate pH 5.80, 25° C.
Procedure: as §1

[3] = Dextran ratio optimization: radio-TLC purity; conditions: Dextran 0% w/w, 25 μCi/ml, 100 mM sodium ascorbate, 0.05 mg/ml DTPA, saline, pH 5.80, 25° C.
Procedure: as §1

## (2,2′,2″-(10-(2-4(R)-1-(((4R,7S,10S,13R,16S,19R)-13-((1H-indol-3-yl)methyl)-10-(4-aminobutyl)-4-(((1S,2R)-1-carboxy-2-hydroxypropyl)carbamoyl)-16-(4-hydroxybenzyl)-7-((R)-1-hydroxyethyl)-6,9,12,15,18-pentaoxo-1,2-dithia-5,8,11,14,17-pentaazacycloicosan-19-yl)amino)-1-oxo-3-phenylpropan-2-yl)amino)-2-oxoethyl)-1,4,7,10-tetraazacyclododecane-1,4,7-triyl)triacetate; actinium-225(3+)) [[^225Ac]Ac-DOTA-TATE]
[1]; EGCg 0 mg/ml, 0 hour
  Percentage of ^225Ac present in [^225Ac]Ac-DOTA-TATE: 99.90%
[1]; EGCg 0 mg/ml, 24 hours
  Percentage of ^225Ac present in [^225Ac]Ac-DOTA-TATE: 99.42%
[1]; EGCg 0 mg/ml, 48 hours
  Percentage of ^225Ac present in [^225Ac]Ac-DOTA-TATE: 98.73%
[1]; EGCg 0 mg/ml, 72 hours
  Percentage of ^225Ac present in [^225Ac]Ac-DOTA-TATE: 97.77%
[1]; EGCg 0 mg/ml, 96 hours
  Percentage of ^225Ac present in [^225Ac]Ac-DOTA-TATE: 97.13%
[1]; EGCg 0 mg/ml, 120 hours, non-homogeneous sampling
  Percentage of ^225Ac present in [^225Ac]Ac-DOTA-TATE: 98.09* %
[1]; EGCg 0 mg/ml, 144 hours
  Percentage of ^225Ac present in [^225Ac]Ac-DOTA-TATE: 94.64%
[1]; EGCg 0.5 mg/ml, 0 hour
  Percentage of ^225Ac present in [^225Ac]Ac-DOTA-TATE: 99.61%
[1]; EGCg 0.5 mg/ml, 24 hours
  Percentage of ^225Ac present in [^225Ac]Ac-DOTA-TATE: 98.92%
[1]; EGCg 0.5 mg/ml, 48 hours
  Percentage of ^225Ac present in [^225Ac]Ac-DOTA-TATE: 98.48%
[1]; EGCg 0.5 mg/ml, 72 hours
  Percentage of ^225Ac present in [^225Ac]Ac-DOTA-TATE: 97.97%
[1]; EGCg 0.5 mg/ml, 96 hours
  Percentage of ^225Ac present in [^225Ac]Ac-DOTA-TATE: 96.44%
[1]; EGCg 0.5 mg/ml, 120 hours
  Percentage of ^225Ac present in [^225Ac]Ac-DOTA-TATE: 95.65%
[1]; EGCg 0.5 mg/ml, 144 hours
  Percentage of ^225Ac present in [^225Ac]Ac-DOTA-TATE: 93.04%
[1]; EGCg 1 mg/ml, 0 hour
  Percentage of ^225Ac present in [^225Ac]Ac-DOTA-TATE: 99.76%
[1]; EGCg 1 mg/ml, 24 hours
  Percentage of ^225Ac present in [^225Ac]Ac-DOTA-TATE: 99.14%
[1]; EGCg 1 mg/ml, 48 hours
  Percentage of ^225Ac present in [^225Ac]Ac-DOTA-TATE: 98.83%
[1]; EGCg 1 mg/ml, 72 hours
  Percentage of ^225Ac present in [^225Ac]Ac-DOTA-TATE: 98.04%
[1]; EGCg 1 mg/ml, 96 hours
  Percentage of ^225Ac present in [^225Ac]Ac-DOTA-TATE: 97.15%
[1]; EGCg 1 mg/ml, 120 hours
  Percentage of ^225Ac present in [^225Ac]Ac-DOTA-TATE: 94.82%
[1]; EGCg 1 mg/ml, 144 hours
  Percentage of ^225Ac present in [^225Ac]Ac-DOTA-TATE: 95.65%
[1]; EGCg 3 mg/ml, 0 hour
  Percentage of ^225Ac present in [^225Ac]Ac-DOTA-TATE: 99.81%
[1]; EGCg 3 mg/ml, 24 hours
  Percentage of ^225Ac present in [^225Ac]Ac-DOTA-TATE: 98.57%
[1]; EGCg 3 mg/ml, 48 hours
  Percentage of ^225Ac present in [^225Ac]Ac-DOTA-TATE: 98.00%
[1]; EGCg 3 mg/ml, 72 hours
  Percentage of ^225Ac present in [^225Ac]Ac-DOTA-TATE: 96.55%
[1]; EGCg 3 mg/ml, 96 hours
  Percentage of ^225Ac present in [^225Ac]Ac-DOTA-TATE: 96.42%
[1]; EGCg 3 mg/ml, 120 hours
  Percentage of ^225Ac present in [^225Ac]Ac-DOTA-TATE: 96.05%
[1]; EGCg 3 mg/ml, 144 hours
  Percentage of ^225Ac present in [^225Ac]Ac-DOTA-TATE: 90.71%
[2]; DTPA 0.05 mg/ml, 0 hour
  Percentage of ^225Ac present in [^225Ac]Ac-DOTA-TATE: 98.74%
[2]; DTPA 0.05 mg/ml, 24 hours
  Percentage of ^225Ac present in [^225Ac]Ac-DOTA-TATE: 97.67%
[2]; DTPA 0.05 mg/ml, 48 hours
  Percentage of ^225Ac present in [^225Ac]Ac-DOTA-TATE: 95.34%
[2]; DTPA 0.05 mg/ml, 72 hours
  Percentage of ^225Ac present in [^225Ac]Ac-DOTA-TATE: 94.62%
[2]; DTPA 0.1 mg/ml, 0 hour
  Percentage of ^225Ac present in [^225Ac]Ac-DOTA-TATE: 97.52%
[2]; DTPA 0.1 mg/ml, 24 hours
  Percentage of ^225Ac present in [^225Ac]Ac-DOTA-TATE: 98.30%
[2]; DTPA 0.1 mg/ml, 48 hours
  Percentage of ^225Ac present in [^225Ac]Ac-DOTA-TATE: 96.74%
[2]; DTPA 0.1 mg/ml, 72 hours
  Percentage of ^225Ac present in [^225Ac]Ac-DOTA-TATE: 94.36%
[2]; DTPA 0.3 mg/ml, 0 hour
  Percentage of ^225Ac present in [^225Ac]Ac-DOTA-TATE: 98.06%
[2]; DTPA 0.3 mg/ml, 24 hours
  Percentage of ^225Ac present in [^225Ac]Ac-DOTA-TATE: 97.19%
[2]; DTPA 0.3 mg/ml, 48 hours
  Percentage of ^225Ac present in [^225Ac]Ac-DOTA-TATE: 96.11%
[2]; DTPA 0.3 mg/ml, 72 hours
  Percentage of ^225Ac present in [^225Ac]Ac-DOTA-TATE: 93.60%
[2]; DTPA 0.5 mg/ml, 0 hour
  Percentage of ^225Ac present in [^225Ac]Ac-DOTA-TATE: 98.40%
[2]; DTPA 0.5 mg/ml, 24 hours
  Percentage of ^225Ac present in [^225Ac]Ac-DOTA-TATE: 97.28%
[2]; DTPA 0.5 mg/ml, 48 hours
  Percentage of ^225Ac present in [^225Ac]Ac-DOTA-TATE: 95.07%
[2]; DTPA 0.5 mg/ml, 72 hours
  Percentage of ^225Ac present in [^225Ac]Ac-DOTA-TATE: 92.73%
[2]; DTPA 0.8 mg/ml, 0 hour
  Percentage of ^225Ac present in [^225Ac]Ac-DOTA-TATE: 98.02%
[2]; DTPA 0.8 mg/ml, 24 hours
  Percentage of ^225Ac present in [^225Ac]Ac-DOTA-TATE: 97.60%
[2]; DTPA 0.8 mg/ml, 48 hours
  Percentage of ^225Ac present in [^225Ac]Ac-DOTA-TATE: 96.57%
[2]; DTPA 0.8 mg/ml, 72 hours
  Percentage of ^225Ac present in [^225Ac]Ac-DOTA-TATE: 93.11%
[2]; DTPA 1.0 mg/ml, 0 hour
  Percentage of ^225Ac present in [^225Ac]Ac-DOTA-TATE: 98.25%
[2]; DTPA 1.0 mg/ml, 24 hours
  Percentage of ^225Ac present in [^225Ac]Ac-DOTA-TATE: 97.37%
[2]; DTPA 1.0 mg/ml, 48 hours
  Percentage of ^225Ac present in [^225Ac]Ac-DOTA-TATE: 96.14%
[2]; DTPA 1.0 mg/ml, 72 hours
  Percentage of ^225Ac present in [^225Ac]Ac-DOTA-TATE: 94.14%
[3]; 0 hour
  Percentage of ^225Ac present in [^225Ac]Ac-DOTA-TATE: 99.90%
[3]; 24 hours
  Percentage of ^225Ac present in [^225Ac]Ac-DOTA-TATE: 99.42%
[3]; 48 hours
  Percentage of ^225Ac present in [^225Ac]Ac-DOTA-TATE: 98.73%
[3]; 72 hours
  Percentage of ^225Ac present in [^225Ac]Ac-DOTA-TATE: 97.77%
[3]; 96 hours
  Percentage of ^225Ac present in [^225Ac]Ac-DOTA-TATE: 97.13%
[3]; 120 hours, non-homogeneous sampling
  Percentage of ^225Ac present in [^225Ac]Ac-DOTA-TATE: 98.09* %
[3]; 144 hours
  Percentage of ^225Ac present in [^225Ac]Ac-DOTA-TATE: 94.64%
